The values below are quoted from earlier work in PMC12583094, “A novel antioxidant peptide from black soybean [Glycine max (L.) Merr.] with verified MPO interaction and multi-scale antioxidant activity” (Frontiers in Nutrition, 2025).

For this data set, the system named is MPO. From the text:
The RU values increased from approximately 0.79 RU to around 24.51 RU with increasing concentrations.

B1: ceruloplasmin: a physiological MPO inhibitor (protein, UniProt P00450 20-1065, looked up)
Ceruloplasmin: KEKHYYIGIIETTWDYASDHGEKKLISVDTEHSNIYLQNGPDRIGRLYKKALYLQYTDETFRTTIEKPVWLGFLGPIIKAETGDKVYVHLKNLASRPYTFHSHGITYYKEHEGAIYPDNTTDFQRADDKVYPGEQYTYMLLATEEQSPGEGDGNCVTRIYHSHIDAPKDIASGLIGPLIICKKDSLDKEKEKHIDREFVVMFSVVDENFSWYLEDNIKTYCSEPEKVDKDNEDFQESNRMYSVNGYTFGSLPGLSMCAEDRVKWYLFGMGNEVDVHAAFFHGQALTNKNYRIDTINLFPATLFDAYMVAQNPGEWMLSCQNLNHLKAGLQAFFQVQECNKSSSKDNIRGKHVRHYYIAAEEIIWNYAPSGIDIFTKENLTAPGSDSAVFFEQGTTRIGGSYKKLVYREYTDASFTNRKERGPEEEHLGILGPVIWAEVGDTIRVTFHNKGAYPLSIEPIGVRFNKNNEGTYYSPNYNPQSRSVPPSASHVAPTETFTYEWTVPKEVGPTNADPVCLAKMYYSAVEPTKDIFTGLIGPMKICKKGSLHANGRQKDVDKEFYLFPTVFDENESLLLEDNIRMFTTAPDQVDKEDEDFQESNKMHSMNGFMYGNQPGLTMCKGDSVVWYLFSAGNEADVHGIYFSGNTYLWRGERRDTANLFPQTSLTLHMWPDTEGTFNVECLTTDHYTGGMKQKYTVNQCRRQSEDSTFYLGERTYYIAAVEVEWDYSPQREWEKELHHLQEQNVSNAFLDKGEFYIGSKYKKVVYRQYTDSTFRVPVERKAEEEHLGILGPQLHADVGDKVKIIFKNMATRPYSIHAHGVQTESSTVTPTLPGETLTYVWKIPERSGAGTEDSACIPWAYYSTVDQVKDLYSGLIGPLIVCRRPYLKVFNPRRKLEFALLFLVFDENESWYLDDNIKTYSDHPEKVNKDDEEFIESNKMHAINGRMFGNLQGLTMHVGDEVNWYLMGMGNEIDLHTVHFHGHSFQYKHRGVYSSDVFDIFPGTYQTLEMFPRTPGIWLLHCHVTDHIHAGMETTYTVLQNEDTKSG
Regarding B1, the “binding to MPO by SPR” value is listed as “clear dose-dependent binding effect”.
